± gives the standard error. Fewer inactive variants are shown than the library holds.
B1: glmS ribozyme (parent)
chain: AUAAAAGCGCCAGAACUACAGAAAUGUAGUUGACGAGGAGGAGGUUUAUCGAAUUUUCGGCGGAUGCCUCCAAA

Experiments:
Settings in all cases: with glucosamine-6-phosphate
glucosamine-6-phosphate [1] = variants of: B1; experiment: self-cleavage kobs at 640 uM GlcN6P; higher = faster cleavage; RNA array
Method in brief: (§1)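 Barcoded ribozyme variants, transcribed in situ by E. coli RNA polymerase on sequenced MiSeq chips, were followed via a hybridised Cy3 probe at 37 °C. Glucosamine-6-phosphate ranged from 40 μM to 10 mM in HEPES/KCl/Mg(OAc)2 buffer. kobs came from decay fits to per-tile medians, and kcat and KM from weighted Michaelis–Menten fits.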

glucosamine-6-phosphate [2] = variants of: B1; experiment: self-cleavage kobs at 2500 uM GlcN6P; higher = faster cleavage; RNA array
Method in brief: as §1

glucosamine-6-phosphate [3] = variants of: B1; experiment: self-cleavage kobs at 10000 uM GlcN6P; higher = faster cleavage; RNA array
Method in brief: as §1

Variant	self-cleavage kobs at 640 uM GlcN6P (glucosamine-6-phosphate [1]) [s⁻¹]	self-cleavage kobs at 2500 uM GlcN6P (glucosamine-6-phosphate [2]) [s⁻¹]	self-cleavage kobs at 10000 uM GlcN6P (glucosamine-6-phosphate [3]) [s⁻¹]
A12C G32U	5.84e-05 ± 2.3e-05	8.84e-05 ± 1.6e-05	0.000265 ± 5e-05
C10U U57C	< 1e-05	–	< 1e-05
G9A C16U U30G G38U	< 1e-05	< 1e-05	–
C11A C58U G59U G62U C70U	< 1e-05	–	–
A12C U31A U57A	4.6e-05 ± 2.3e-05	4.93e-05 ± 1.6e-05	–
C10G C61G A64U	< 1e-05	< 1e-05	–
G9U G38U C61U	< 1e-05	–	–
C10A G38U A39G	< 1e-05	< 1e-05	–
G13A G44U	< 1e-05	< 1e-05	–
A12U C16A A53C	0.000148 ± 3.3e-05	0.000358 ± 7.9e-05	–
C11A G13U C58A G62C	< 1e-05	–	–
C11A A15G G32C A33U	< 1e-05	–	–
C11A A33G G51A C71U	< 1e-05	–	–
A12C G29C U30G	0.000163 ± 2.9e-05	0.000329 ± 8.6e-05	–
C11G G59C C67G	0.000111 ± 4e-05	0.00023 ± 6.2e-05	–
C10U C34G U46A A48U U69A	< 1e-05	< 1e-05	< 1e-05
G9A C16U C58U	< 1e-05	–	–
A12C A42U C68U	5.31e-05 ± 1.5e-05	0.000111 ± 2.6e-05	–
C11G A12G U45G U47A C71G	< 1e-05	< 1e-05	–
C10A G35C U55C	< 1e-05	< 1e-05	–
C11A U31C A42C	< 1e-05	–	–
G9U U47G C68A	< 1e-05	–	–

Variant	self-cleavage kobs at 640 uM GlcN6P (glucosamine-6-phosphate [1]) [s⁻¹]	self-cleavage kobs at 2500 uM GlcN6P (glucosamine-6-phosphate [2]) [s⁻¹]	self-cleavage kobs at 10000 uM GlcN6P (glucosamine-6-phosphate [3]) [s⁻¹]
C10G C11A C58A G66U	< 1e-05	–	–
C10U G29A C34G C50A G63A G66C	< 1e-05	–	–
C10G A33U G35C G41U U54C C70U	< 1e-05	< 1e-05	–
G9C G37C U46C C50G	< 1e-05	< 1e-05	–
A12U G32C U47G C70A	0.0007 ± 0.00018	–	–
C11G A39U U45C U49A C50U G62C U65G	< 1e-05	–	–
A12U U31G U45G A53U	0.00024 ± 6.1e-05	0.00101 ± 0.00033	–
A12G A14U C16G U46A A53U	< 1e-05	–	–
C10G A33G	< 1e-05	–	< 1e-05
A12U A15G C67A	0.00125 ± 0.00035	0.00634 ± 0.0023	–
A12C G29C G37A U55A	4.45e-05 ± 1.9e-05	–	–
C10G A15C C50A	< 1e-05	–	–
C11A C50U G59C	< 1e-05	< 1e-05	–
C10A G44A U47C	< 1e-05	–	–
C10U U49G C58A	< 1e-05	–	–
C10G C68G C70U	9.88e-05 ± 3.1e-05	–	–
A12C A64C G66C	< 1e-05	–	< 1e-05
A12G A14G U57A C68A U69G	0.000246 ± 8e-05	7.01e-05 ± 3.5e-05	–
C10G U30C G38U	< 1e-05	–	–
A12U C16U G43U	4.04e-05 ± 1.7e-05	7.33e-05 ± 1.4e-05	–
G9U U30G U31C A39C A64G	< 1e-05	< 1e-05	–
G9C C16A G63C C71G	< 1e-05	–	–

Variant	self-cleavage kobs at 640 uM GlcN6P (glucosamine-6-phosphate [1]) [s⁻¹]	self-cleavage kobs at 2500 uM GlcN6P (glucosamine-6-phosphate [2]) [s⁻¹]	self-cleavage kobs at 10000 uM GlcN6P (glucosamine-6-phosphate [3]) [s⁻¹]
G13A U31G A33U	< 1e-05	< 1e-05	–
G9A G29C G32A G38U	< 1e-05	–	–
C10U U31A G40U U49C C58U G59U C70G	< 1e-05	–	–
A12G A14U A15U C71A	6.44e-05 ± 1.9e-05	7.44e-05 ± 1.8e-05	–
C10A G13A C50A C58U C71G	0.000823 ± 0.00036	7.64e-05 ± 3.6e-05	–
C11G A33U C58U	< 1e-05	–	–
C11A A36U C70G	0.000284 ± 7e-05	0.000767 ± 0.00032	–
A12U C16U G63U G66C	< 1e-05	< 1e-05	–
C10A G35A A42U U57G	< 1e-05	–	–
C10A G51A	< 1e-05	–	< 1e-05
C11A A12U U47A	0.000122 ± 2.6e-05	–	–
C11A G35C C50U C58U	< 1e-05	< 1e-05	–
G9U A42G U45A C58G	< 1e-05	< 1e-05	–
C10G C58U G63U	< 1e-05	–	–
G9A C11U G29C G35U G59C	< 1e-05	< 1e-05	–
C10U G44U U54G U55C	< 1e-05	< 1e-05	–
G9U G63A	< 1e-05	< 1e-05	< 1e-05
G9U A12C G51C C67U	< 1e-05	< 1e-05	–
C10G U47A A53U G60U	< 1e-05	–	–
G13A C61U	< 1e-05	< 1e-05	< 1e-05
C11U C16U A64U C71G	0.0021 ± 0.00087	–	–
G9U A33C G41U G62C	< 1e-05	< 1e-05	–

Variant	self-cleavage kobs at 640 uM GlcN6P (glucosamine-6-phosphate [1]) [s⁻¹]	self-cleavage kobs at 2500 uM GlcN6P (glucosamine-6-phosphate [2]) [s⁻¹]	self-cleavage kobs at 10000 uM GlcN6P (glucosamine-6-phosphate [3]) [s⁻¹]
C11G C70A	3.62e-05 ± 1.5e-05	–	–
A12U A42G C68U	0.00273 ± 0.00096	–	–
A12U A15G A42U	0.000151 ± 4.6e-05	–	–
G13A G51U	< 1e-05	< 1e-05	< 1e-05
C10A G41C C58U	< 1e-05	–	–
C10G G66U	< 1e-05	< 1e-05	< 1e-05
G9U U49A C71A	< 1e-05	–	–
A12C A14C G32A G44C C70G	< 1e-05	< 1e-05	–
C11A A14U A15G G35C U45A G60U	< 1e-05	–	–
C10A G44A G59U	< 1e-05	–	–
G9A U45A C50G C68U	< 1e-05	–	< 1e-05
G9A G38U U57A	< 1e-05	–	–
A12C G41U U46G	8.69e-05 ± 1.8e-05	7.37e-05 ± 2.8e-05	–
A12G U55G G62C	< 1e-05	–	< 1e-05
C10G A36G U45G U49A G66A C71U	< 1e-05	< 1e-05	–
C10A A36U C68A	0.000222 ± 9e-05	–	–
C11G U31G G35C C71U	< 1e-05	< 1e-05	–
G9C C11U U56G G66C	< 1e-05	–	–
C10U A33U A36U G43U A53G C71U	< 1e-05	< 1e-05	–
C11G C16A G43U	< 1e-05	–	–
C10U A33U U56C C68A	< 1e-05	–	–
C11G A15G C50G G66U	0.000661 ± 0.00032	–	–

Variant	self-cleavage kobs at 640 uM GlcN6P (glucosamine-6-phosphate [1]) [s⁻¹]	self-cleavage kobs at 2500 uM GlcN6P (glucosamine-6-phosphate [2]) [s⁻¹]	self-cleavage kobs at 10000 uM GlcN6P (glucosamine-6-phosphate [3]) [s⁻¹]
C11A A36U U47C	< 1e-05	< 1e-05	–
G9C A53G U65C	< 1e-05	< 1e-05	–
C11G A42U G51U G62C	< 1e-05	< 1e-05	–
C10G G66U C68G C71A	8.79e-05 ± 3.1e-05	–	–
G9U A12C A33G	< 1e-05	< 1e-05	–
C10G C34G G41U U45A	< 1e-05	< 1e-05	–
C10A A12U G29A A39G A52G C67G	0.000283 ± 8.4e-05	0.000236 ± 7.4e-05	–
C11G G13U G29A G66A	< 1e-05	–	–
A12U A48U C68A C70G	< 1e-05	–	–
C10U A12U C50U C70U	0.000161 ± 6.4e-05	–	–
C11U U30G U57A C61U	< 1e-05	–	–
C11U U54G G59A	0.00194 ± 0.00054	0.00627 ± 0.002	–
C10U A33G G40U C50G	< 1e-05	–	–
C11G G44A U55A	< 1e-05	< 1e-05	–
C11G G37C C68U	9.13e-05 ± 3.1e-05	–	–
G9U G44C G63U	< 1e-05	< 1e-05	–
C11G A12C C34G A53G U54C	< 1e-05	< 1e-05	–
C11U G32C U47C C50A	< 1e-05	–	–
C10A A48C G59C	< 1e-05	–	–
G9U A15G U55A	< 1e-05	–	–
C11A G35U C71G	< 1e-05	< 1e-05	–
C10G C67G C68U	0.0001 ± 4.2e-05	7.32e-05 ± 3e-05	2.77e-05 ± 1.3e-05

Variant	self-cleavage kobs at 640 uM GlcN6P (glucosamine-6-phosphate [1]) [s⁻¹]	self-cleavage kobs at 2500 uM GlcN6P (glucosamine-6-phosphate [2]) [s⁻¹]	self-cleavage kobs at 10000 uM GlcN6P (glucosamine-6-phosphate [3]) [s⁻¹]
G9A U46C C67U	< 1e-05	–	–
G9U C10A	< 1e-05	< 1e-05	–
C11A C61U	< 1e-05	< 1e-05	< 1e-05
A12G G29A U30A U45G G62A C71U	< 1e-05	< 1e-05	–
C10G G40A C70U	< 1e-05	< 1e-05	–
A12G U31A	5.56e-05 ± 9.9e-06	7.25e-05 ± 1.1e-05	0.000227 ± 2.4e-05
C11U U31A A53U C70G	0.000209 ± 6.9e-05	0.000251 ± 8.4e-05	–
G9U A36G U45C A48C G60U C68G	< 1e-05	< 1e-05	< 1e-05
G9A U47A C70U	< 1e-05	–	–
C11G C50G C61U	7.22e-05 ± 3.5e-05	6.44e-05 ± 2.1e-05	–
A12U A48C G51U C71U	< 1e-05	–	–
G9U A14U C16A G32U A36G	< 1e-05	–	–
C11U G43A U46A U55G U65G G66A	< 1e-05	< 1e-05	–
C11A A52G A64C	< 1e-05	< 1e-05	–
C10G G38U U49G C58G A64C U65A C67U C68U	0.000308 ± 8.3e-05	–	–
C11A G32U A39C U54A C67G C68G	0.00137 ± 0.00067	–	–
G9C A42U U47A U57G	< 1e-05	–	–
A12U C67U C71U	0.000764 ± 0.0002	0.000592 ± 0.00018	–
C11A C16U A42U	< 1e-05	–	–
G9C C50U C58U	< 1e-05	< 1e-05	–
G9A G29A A33C G66A	< 1e-05	–	–

Source: the supplement of paper PMC7125110
